Measured values taken from article PMC9573943, “Contribution of the 12–17 hydrophobic region of islet amyloid polypeptide in self-assembly and cytotoxicity” (Frontiers in Molecular Biosciences, 2022).
Bridge positions count the residues as written; N and C are the ends. Ends that are not written are not given here.

Columns and labels:
[1] = Peptide self-assembly under fully quiescent conditions (CD, ThT and ANS fluorescence, TEM, AFM); assay type: physicochemical; conditions: 50 μM peptide; for Incubation time at which the random coil to β-sheet conformational transition is seen (far-UV CD) / Secondary conformation / conformational transition over incubation (far-UV CD), in words: fully quiescent; for Incubation time at which the random coil to β-sheet conformational transition is seen (far-UV CD): microtubes, diluted to 25 μM for CD; for Assemblies observed by TEM after 48 h incubation: negative stain TEM; for Overall effect of the substitution on amyloid formation, in words: CD, ThT, ANS, TEM, compared with unmodified IAPP; for ThT fluorescence of incubated peptide, in words: diluted to 25 μM with 40 μM ThT; for Secondary conformation / conformational transition over incubation (far-UV CD), in words: up to 7 days
Method: Solutions were prepared by dissolving the peptide at a concentration of 50 μM in 20 mM Tris-HCl, pH 7.4, and were incubated at room temperature without agitation in 1.5 ml Eppendorf microtubes. For IAPP12-17, the lyophilized peptide was dissolved in 20 mM acetate pH 6.5 in the presence of 3% DMSO, or HFIP, at a final concentration of 500 μM and the peptide solution was incubated at 37 °C under constant rotational agitation.
At the indicating time of incubation, peptide solutions were diluted to 25 μM in presence of 40 μM ThT, or 25 μM 8-anilino-1-naphthalenesulfonic acid (ANS). Fluorescence was measured in 10-mm pathlength microcells using a PTI QuantaMaster spectrofluorometer. For ThT, excitation was set at 440 nm, and the emission spectrum from 450 to 550 nm was recorded. For ANS, the excitation was set at 355 nm, and the emission scan was recorded from 385 to 585 nm.
After incubation, peptide solutions were diluted in water to 25 μM and incorporated into a 2-mm path length quartz cell. For IAPP12-17, the solution was diluted to 150 μM. Far-UV CD spectra were recorded from 190 to 260 nm using a Jasco J-815 CD spectropolarimeter at 25°C. The wavelength step was set at 0.5 nm with an average time of 10 s per scan at each wavelength. Spectra were background-subtracted with buffer solution. Raw data were converted to mean residue ellipticity (MRE): MRE=Mean residue weight (g/mol)X CD signal (deg)/10 X pathlength (cm) X peptide concentration (g/mL)
After incubation, peptide solutions were diluted to 10 μM, or 100 μΜ for IAPP12-17, before being applied on glow-discharged carbon films on 300-mesh copper grids. Samples were adsorbed and negatively stained with 1.5% uranyl formate for 45 s. Images were recorded using a FEI Tecnai G2 Spirit Twin microscope operating at 120 kV and equipped with a Gatan Ultrascan scan 4,000 4k × 4k CCD camera system.
After incubation, peptide solutions were diluted in 1% acetic acid to a concentration of 7.5 μΜ. […] Images were recorded using Veeco/Bruker multimode AFM instrument using ScanAsyst-air mode with a silicon tip (2–12 nm tip radius, 0.4 N/m force) on a nitride lever. Images were taken at 0.977 Hz and 512 scan/min.

INS-1E cells [2] = assay: Cell viability by resazurin reduction; assay type: cell-based, Rat; conditions: freshly dissolved peptide up to 50 μM, 24 h, at least five assays
Method: (§1) Rat INS-1E cells were cultured in treated black-wall clear-bottom 96-well plates at a density of 25,000 cell/well in RPMI-1640 medium supplemented with 10% FBS, 2 mM L-glutamine, 100 U/ml penicillin, 100 μg/ml streptomycin, 10 mM HEPES, 1 mM sodium pyruvate and 50 μM β-mercaptoethanol. After 48 h of incubation at 37°C in 5% CO2, cells were treated with 50 μL of peptide freshly dissolved in 20 mM Tris-HCl, pH 7.4. […] Cell viability (%) was calculated from the ratio of the fluorescence of the treated cells to the vehicle-treated cells. Data of at least five assays performed with different peptide lots were averaged and expressed as the mean ± S.D. Statistical analysis was performed using Student’s t test, and statistically significant difference was established at (*) p < 0.05; (**) p < 0.005; (***) p < 0.0005. For Live/Dead viability assay, cells were plated in 12-well plates at density of 250,000 cell/well for 48 h before treatment with 25 μM peptide.

[3] = Kinetics of amyloid formation monitored by ThT fluorescence; assay type: physicochemical; conditions: 40 μM ThT, 20 mM Tris-HCl pH 7.4, 25°C, no agitation
Method: Aggregation mixtures were prepared by dissolving the lyophilized peptide at a concentration of 50 μM in 20 mM Tris-HCl, pH 7.4. Assays were performed at 25°C without stirring in sealed black-wall clear-bottom 96-well nonbinding surface plates with 100 μL/well. Final peptide concentrations were 12.5 and 25 μM, and thioflavin T (ThT) concentration was fixed at 40 μM. Fluorescence was measured every 10 min (excitation: 440 nm, emission: 485 nm) and data from triplicate wells were averaged, corrected by subtracting the blank control, and plotted as ThT fluorescence vs. time. Data were normalized with maximum ThT fluorescence intensity obtained for unmodified IAPP. Data were fitted to a sigmoidal Boltzmann model: Y=Yo+(Ymax−Yo)/1+e^−(T−T50)/ K where T 50 is the time required to reach half of the maximum fluorescence intensity, k is the apparent first-order constant, and Y max and Y 0 are the maximum and initial ThT fluorescence values. Lag time corresponds to T50 - 2/k. Data of at least six assays performed with different peptide lots were averaged and expressed as the mean ± S.D. Statistical analysis was performed using Student’s t test, and statistically significant difference between IAPP and analogs was established at (*) p < 0.05; (**) p < 0.005; (***) p < 0.0005.

INS-1E cells [4] = assay: Live/Dead viability assay (calcein-AM / ethidium homodimer-1, fluorescence microscopy); assay type: cell-based, Rat; conditions: 25 μM freshly solubilized peptide, 24 h, calcein-AM (green, live) and ethidium homodimer-1 (red, dead)
Method: as §1

[5] = Lipid membrane leakage (calcein-loaded LUVs); conditions: 25 μM peptide, 500 μM phospholipids, LUVs DOPC:DOPG 9:1, 20 mM Tris-HCl, 150 mM NaCl, pH 7.4, read every 10 min over 24 h; IAPP value reached after 10 h; at least four assays
Method: Large unilamellar vesicles (LUVs) were assembled from 1,2-Dioleoyl-sn-glycero-3-phosphocholine (DOPC) and 2-dioleoyl-sn-glycero-3-phospho-(1′-rac-glycerol) (DOPG) at a 9:1 M ratio (DOPC:DOPG). Lipids were solubilized in 100% chloroform, which was then evaporated. […] The lipid mixture was freeze-thawed five times before being extruded through a 100 nm membrane for 20 cycles. Nonencapsulated calcein was removed by gel filtration using a Sephadex G25 fine resin and 20 mM Tris-HCl, 150 mM NaCl, pH 7.4, as elution buffer. Final lipid concentration was determined by a colorimetric assay ([Babych et al., 2021]). Lyophilized peptides were solubilized in 20 mM Tris-HCl, 150 mM NaCl, pH 7.4, at 50 μM prior to dilution into calcein-LUVs, to reach 25 μM peptide and 500 μM phospholipids. Fluorescence was monitored in sealed black-wall, clear-bottom 96-well non-binding surface plates with 100 μL/well. […] 100% leakage (Fmax) was determined with 0.2% Triton X-100 and LUV leakage was reported using:
Membrane leakage (%) = (F−F baseline)/(F max−F baseline)
Data of at least four assays with different peptide lots were averaged and expressed as the mean ± S.D. Statistical analysis was performed using Student’s t test, and statistically significant difference was established at (*) p < 0.05; (**) p < 0.005; (***) p < 0.0005.

[6] = 20 mM Tris-HCl pH 7.4, room temperature
[7] = 20 mM Tris-HCl pH 7.4, quiescent

Substance | Incubation time at which the random coil to β-sheet conformational transition is seen (far-UV CD) [1, 6] | Assemblies observed by TEM after 48 h incubation [1, 7] | Overall effect of the substitution on amyloid formation, in words [1, 7] | Cytotoxicity compared with unmodified IAPP, in words (INS-1E cells [2]) | ThT fluorescence of incubated peptide, in words [1, 7] | Secondary conformation / conformational transition over incubation (far-UV CD), in words [1, 6] | further results
N14P: full-length IAPP with Pro at position Asn14 (KCNTATCATQRLAPFLVHSSNNFGAILSSTNVGSNTY; disulfide 2-7; ends not checked; UniProt P10997 34-70, looked up, variant N14P) | 24 h | – | – | – | – | – | Assemblies observed by AFM after 24 h incubation ([1]; 20 mM Tris-HCl pH 7.4, room temperature, no agitation, 24 h): dense network of fibrils
A13G: full-length IAPP with Ala13 substituted by Gly (KCNTATCATQRLGNFLVHSSNNFGAILSSTNVGSNTY; disulfide 2-7; ends not checked; UniProt P10997 34-70, looked up, variant A13G) | ≤ 6 h | presence of fibrillar aggregates | accelerates IAPP amyloid self-assembly | higher cytotoxicity compared to unmodified IAPP | – | – | –
F15P: full-length IAPP with Pro at position Phe15 (KCNTATCATQRLANPLVHSSNNFGAILSSTNVGSNTY; disulfide 2-7; ends not checked; UniProt P10997 34-70, looked up, variant F15P) | – | absence fibrillar aggregates | – | – | – | – | Assemblies observed by AFM after 96 h incubation ([1]; 20 mM Tris-HCl pH 7.4, room temperature, no agitation, 96 h): typical fibrils
L12A: full-length IAPP with Leu→Ala substitution at position 12 (KCNTATCATQRAANFLVHSSNNFGAILSSTNVGSNTY; disulfide 2-7; ends not checked; UniProt P10997 34-70, looked up, variant L12A) | – | long and twisted fibrils | – | reduced IAPP toxicity | absence of a ThT-signal | remained mainly under a random coil structure after a week of incubation | ANS fluorescence of incubated peptide, in words ([1]; 20 mM Tris-HCl pH 7.4, quiescent, diluted to 25 μM with 25 μM ANS): low ANS fluorescence; Increase of ThT fluorescence signal ([3]; 12.5 μM peptide): no increase of ThT fluorescence signal could be detected; Lag time of amyloid formation ([3]; 25 μM peptide, nonbinding surface 96-well plate, read every 10 min, lag time = T50 - 2/k, mean ± S.D. of at least six assays): 13.5 ± 4.1 h; Cell death in Live/Dead assay, in words (INS-1E cells [4]): decreased toxicity compared to unmodified IAPP
A13P: full-length IAPP with Ala13 substituted by Pro (KCNTATCATQRLPNFLVHSSNNFGAILSSTNVGSNTY; disulfide 2-7; ends not checked; UniProt P10997 34-70, looked up, variant A13P) | 4 h | Prototypical fibrils | accelerated amyloid formation | increased the cytotoxicity of IAPP at 12.5 and 25 μM | – | – | Incubation time at which ThT and ANS positive signal arises ([1]; 20 mM Tris-HCl pH 7.4, quiescent, diluted to 25 μM with 40 μM ThT or 25 μM ANS): 6 h
V17A: full-length IAPP with Val17 substituted by Ala (KCNTATCATQRLANFLAHSSNNFGAILSSTNVGSNTY; disulfide 2-7; ends not checked; UniProt P10997 34-70, looked up, variant V17A) | – | short and poorly defined fibrils | – | reduced IAPP toxicity | low ThT and ANS binding properties | delayed the conformational transition | Cell death in Live/Dead assay, in words (INS-1E cells [4]): decreased toxicity compared to unmodified IAPP; Maximum membrane leakage (calcein fluorescence, % of that with Triton X-100) [5]: 34%
L16P: full-length IAPP with Leu16 substituted by Pro (KCNTATCATQRLANFPVHSSNNFGAILSSTNVGSNTY; disulfide 2-7; ends not checked; UniProt P10997 34-70, looked up, variant L16P) | – | – | completely inhibited amyloid formation | less cytotoxic than unmodified IAPP | absence of a ThT and ANS signal | random coil conformation observed after 7 days incubation | –
